Experimental data from patent US8147838B2, “Peptide” (priority 2005, dated 2012).

Columns and labels:
[1] = tested on: PBMCs recovered from patients treated with TroVax; assay: IFNγ ELISPOT with PBMCs from TroVax treated patients; assay type: cell-based, human
[2] = target: MHC class I allele B*0702 (B7) (Homo sapiens, UniProt P01889); assay: iTopia peptide binding assay, B*0702; settings: percent of positive control peptide binding; peptide at 1.11×10^−5M
Procedure: (§1) The 9 mers were tested for Peptide Binding, Off Rate and Affinity using iTopia Epitope Discovery System in accordance with the manufacturer's instructions. Briefly, 96 well microtitre plates coated with MHC molecules representing different MHC alleles are used to identify candidate peptides. […] Determinations are performed in duplicate using an ELISA plate reader and included allele specific positive controls.
(§2) i) Peptide Binding—This assay measures the ability of individual peptides to bind to the MHC molecules under standardized optimal binding conditions. The assay is performed for all the test peptides across the selected MHC alleles. The test peptides identified as “binders” are characterized further in terms of affinity and dissociation experiments.
(§3) Following a period of binding under optimal conditions, excess antibody is removed and a measurement of total fluorescence taken (D).
(§4) The binding of the test peptides to the MHC molecules was performed at 1.11×10^−5M of peptide under optimal, standardised test conditions. A control peptide was run in parallel on the same plate and at the same concentration as the test peptides.
(§5) The level of binding is expressed as a percent of positive control peptide binding for each allele.

[3] = target: MHC class I allele A*0301 (A3) (Homo sapiens, UniProt P04439); assay: iTopia peptide binding assay, A*0301; settings: percent of positive control peptide binding; peptide at 1.11×10^−5M
Procedure: as §1, §2, §3, §4, §5

[4] = target: MHC class I allele A*0101 (A1) (Homo sapiens, UniProt P04439, A114D/A174V/A182V/D101N/D185E/E176A/E190D/L180R/Q94H/R68K/S129P/T187R/V100A/V91M/W191G); assay: iTopia peptide binding assay, A*0101; settings: percent of positive control peptide binding; peptide at 1.11×10^−5M
Procedure: as §1, §2, §3, §4, §5

[5] = target: MHC class I allele A*0201 (A2) (Homo sapiens, UniProt P04439, D140Y/D185E/D98H/E176V/E277Q/G131W/G231S/I119V/I121R/I166T/I218V/L300P/L318F/N151K/N90K/P208A/P217A/Q86G/Q94H/R138H/R169H/T345S); assay: iTopia peptide binding assay, A*0201; settings: percent of positive control peptide binding; peptide at 1.11×10^−5M
Procedure: as §1, §2, §3, §4, §5

[6] = 10 mer vs 9 mer experiment, absence of A2 blocking antibody, FIG. 14
[7] = PBMCs of patient TV2-018, X+6 wk and X+10 wk, FIG. 11-13

Sequence	IFNγ ELISPOT response [1, 6]	IFNγ ELISPOT response [1, 7]	IFNγ ELISPOT response with A2 blocking antibody (clone BB7.2) / A2 restriction ([1]; presence of A2 blocking antibody)	Peptide binding, MHC Class I Molecule B*0702 [2]	Peptide binding, MHC Class I Molecule A*0301 [3]	Peptide binding, MHC Class I Molecule A*0101 [4]	Peptide binding, MHC Class I Molecule A*0201 [5]
ARLALVLLGW [10 mer peptide 10]	no response						
FLTGNQLAVL [10 mer peptide 49]	response	capable of inducing an ex-vivo IFNγ response	A2 restricted				
MPGGCSRGPA [10 mer peptide 1]	no response						
NIRDACRDHM [10 mer peptide 194]		capable of inducing an ex-vivo IFNγ response					
NLFLTGNQLA [10 mer peptide 48]	no response						
PAGAFARRP [Peptide 54]				7 % of control	3 % of control	2 % of control	4 % of control
PALCECSEA [Peptide 32]				0 % of control	0 % of control	4 % of control	19 % of control
PDQCPALCE [Peptide 30]				1 % of control	0 % of control	5 % of control	3 % of control
PFAFSGSNA [Peptide 80]				7 % of control	3 % of control	0 % of control	13 % of control
PHIRVFLDN [Peptide 143]				10 % of control	3 % of control	0 % of control	2 % of control
PPEDERQNR [Peptide 93]				0 % of control	0 % of control	0 % of control	2 % of control
PRLTNLSSN [Peptide 205]				11 % of control	2 % of control	2 % of control	8 % of control
PWVCDCHMA [Peptide 148]				0 % of control	0 % of control	0 % of control	0 % of control
QCPALCECS [Peptide 31]				0 % of control	0 % of control	3 % of control	2 % of control
QPPLPDQCP [Peptide 28]				3 % of control	1 % of control	6 % of control	5 % of control
RDHMEGYHY [Peptide 197]				5 % of control	3 % of control	11 % of control	6 % of control
RDVLAQLPS [Peptide 114]				4 % of control	3 % of control	1 % of control	15 % of control
RQLDLSHNP [Peptide 73]				4 % of control	2 % of control	2 % of control	8 % of control
RRLELASNH [Peptide 107]				3 % of control	3 % of control	0 % of control	5 % of control

Sequence	IFNγ ELISPOT response [1, 6]	IFNγ ELISPOT response [1, 7]	IFNγ ELISPOT response with A2 blocking antibody (clone BB7.2) / A2 restriction ([1]; presence of A2 blocking antibody)	Peptide binding, MHC Class I Molecule B*0702 [2]	Peptide binding, MHC Class I Molecule A*0301 [3]	Peptide binding, MHC Class I Molecule A*0101 [4]	Peptide binding, MHC Class I Molecule A*0201 [5]
RRPPLAELA [Peptide 57]				9 % of control	2 % of control	2 % of control	11 % of control
RTVKCVNRN [Peptide 37]				3 % of control	12 % of control	7 % of control	12 % of control
SADLDCDPI [Peptide 170]				3 % of control	4 % of control	0 % of control	4 % of control
SAQPPLPDQ [Peptide 27]				3 % of control	0 % of control	2 % of control	13 % of control
SEAARTVKC [Peptide 35]				0 % of control	0 % of control	5 % of control	1 % of control
SFRNLTHLE [Peptide 127]				0 % of control	1 % of control	1 % of control	1 % of control
SGSNASVSA [Peptide 82]				11 % of control	3 % of control	5 % of control	15 % of control
SLRQLDLSH [Peptide 72]				13 % of control	11 % of control	0 % of control	6 % of control
SSSPTSSAS [Peptide 16]				8 % of control	2 % of control	4 % of control	7 % of control
TDLPAYVRN [Peptide 44]				2 % of control	1 % of control	7 % of control	3 % of control
TEVPTDLPA [Peptide 42]				0 % of control	0 % of control	3 % of control	7 % of control
VKCVNRNLT [Peptide 38]				2 % of control	0 % of control	6 % of control	3 % of control
VQGKDRLTC [Peptide 158]				6 % of control	6 % of control	0 % of control	4 % of control
VRNLFLTGN [Peptide 47]				3 % of control	0 % of control	0 % of control	5 % of control
VSAPSPLVE [Peptide 85]				3 % of control	7 % of control	3 % of control	13 % of control
VSSSSPTSS [Peptide 15]				2 % of control	2 % of control	3 % of control	9 % of control
VVAALLAGR [Peptide 100]				7 % of control	49 % of control	9 % of control	11 % of control
YHYRYEINA [Peptide 200]				5 % of control	1 % of control	0 % of control	7 % of control
YRYEINADP [Peptide 201]				3 % of control	1 % of control	0 % of control	0 % of control
